Source: PMC9530591 (eBioMedicine, 2022)

Target: HA1-trimer (influenza A virus H1N1 …)
Test: SPR
Conditions: both partners purified

Row | Binder | Kd [nM]
1 | 5J8 (antibody, V domains shown) VH: EVQLVESGPGLVKPSDILSLTCAVSGYSISSNYYWGWIRQPPGKGLEWIGSIYHSGSTYYKPSLESRLGISVDTSKNQFSLKLSFVSAADTAVYYCARHVRSGYPDTAYYFDKWGQGTLVTVSS VL: SYVLTQPPSVSVAPGETARISCGGNNIGTKVLHWYQQTPGQAPVLVVYDDSDRPSGIPERFSGSNSGNTATLTISRVEVGDEADYYCQVWDISTDQAVFGGGTKLTVL | 0.0531
2 | 32D6 (antibody, V domains shown) VH: QVQLQESGPGLVKPSETLSLTCTVSGGSVNTGSYYWSWIRQPPGKGLEWIAYSSVSGTSNYNPSLKSRVTLTVDTSKNQFSLSVRSVTAADTAVYFCARLNYDILTGYYFFDFWGQGTLVIVSS VL: QVELTQSPSASASLGTSVKLTCTLSSGHSTYAIAWHQQRPGKGPRYLMNLSSGGRHTRGDGIPDRFSGSSSGADRYLIISSLQSEDEADYYCQTWDAGMVFGGGTKLTVL | 0.0445
